Data as given in paper PMC6564026, “An autoinducer-independent RhlR quorum-sensing receptor enables analysis of RhlR regulation”.

How the values were obtained:
[1] = target: MBP-RhlR* (Pseudomonas aeruginosa, UniProt P54292 1-241, Y64F;W68F;V133F); assay: ITC; no ligand; EMSA: 20 mM Tris-HCl pH 8, 50 mM KCl, 1 mM EDTA, 1 mM DTT, 1.5 mg/mL poly-IC, 50 ug/mL BSA, 10% glycerol, room temp 15 min; ITC: 25 C, S200 buffer (200 mM NaCl, 20 mM Tris-HCl pH 8, 1 mM DTT), 20 uM DNA titrated into 1 uM protein; details: protein: recombinant; tags: N-terminal MBP (pMALC2x); chain copies: 2; duplex not explicitly stated
[2] = target: MBP-RhlR:mBTL (Pseudomonas aeruginosa, UniProt P54292 1-241); assay: ITC; mBTL; EMSA: 20 mM Tris-HCl pH 8, 50 mM KCl, 1 mM EDTA, 1 mM DTT, 1.5 mg/mL poly-IC, 50 ug/mL BSA, 10% glycerol, room temp 15 min; ITC: 25 C, S200 buffer (200 mM NaCl, 20 mM Tris-HCl pH 8, 1 mM DTT), 20 uM DNA titrated into 1 uM protein; details: protein: recombinant; tags: N-terminal MBP (pMALC2x); chain copies: 2; duplex not explicitly stated

B1: rhl-box consensus (dsDNA)
DNA 1: ACCTGCCAGATTTCGCAGGT
DNA 2: ACCTGCGAAATCTGGCAGGT
Kd [1]: 34 nM | Kd [2]: 23 nM
